Changes are numbered by the printed parent chain.
Columns and labels:
[1] = biological target: T1, topo VI holoenzyme WT (Methanosarcina mazei) (UniProt Q8PUB7+Q8PUB8); test: fluorescence anisotropy; settings: FA: 20 nM probe, 50 mM K-glutamate, 20 mM HEPES-KOH pH 7.5, 10 mM MgCl2, 5% glycerol, 1 mM TCEP, 0.1 mg/mL BSA; incubated on ice, read at ambient temperature …
T1 sequence 1: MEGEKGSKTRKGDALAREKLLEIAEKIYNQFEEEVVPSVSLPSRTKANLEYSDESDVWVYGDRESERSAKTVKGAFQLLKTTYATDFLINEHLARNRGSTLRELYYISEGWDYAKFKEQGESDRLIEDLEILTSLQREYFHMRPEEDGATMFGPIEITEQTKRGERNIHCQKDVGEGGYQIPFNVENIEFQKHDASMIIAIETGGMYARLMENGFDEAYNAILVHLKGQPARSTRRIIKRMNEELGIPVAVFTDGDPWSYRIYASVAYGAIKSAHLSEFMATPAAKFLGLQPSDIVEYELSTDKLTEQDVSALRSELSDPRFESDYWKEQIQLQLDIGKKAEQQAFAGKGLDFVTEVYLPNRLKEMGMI
T1 sequence 2: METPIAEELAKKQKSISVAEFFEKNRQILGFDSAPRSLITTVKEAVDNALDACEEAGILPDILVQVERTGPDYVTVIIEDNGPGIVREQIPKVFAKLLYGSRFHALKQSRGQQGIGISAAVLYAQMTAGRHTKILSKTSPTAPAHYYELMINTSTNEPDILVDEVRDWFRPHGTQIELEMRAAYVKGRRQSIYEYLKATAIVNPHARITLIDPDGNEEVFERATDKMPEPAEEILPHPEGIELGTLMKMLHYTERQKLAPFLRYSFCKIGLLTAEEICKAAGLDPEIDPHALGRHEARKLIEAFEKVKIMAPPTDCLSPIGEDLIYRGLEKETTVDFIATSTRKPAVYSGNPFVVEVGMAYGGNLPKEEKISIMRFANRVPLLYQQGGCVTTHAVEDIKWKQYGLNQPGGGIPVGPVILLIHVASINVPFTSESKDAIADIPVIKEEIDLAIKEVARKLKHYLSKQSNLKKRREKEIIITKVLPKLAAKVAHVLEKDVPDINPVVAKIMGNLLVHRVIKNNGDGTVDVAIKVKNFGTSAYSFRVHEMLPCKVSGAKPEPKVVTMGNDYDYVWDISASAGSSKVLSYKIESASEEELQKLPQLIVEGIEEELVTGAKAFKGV

[2] = biological target: T2, topo VI H2TH-AAA R263A;K268A;K308A (Methanosarcina mazei) (UniProt Q8PUB7+Q8PUB8); test: competition (fluorescence anisotropy); settings: vs FAM 70 bp; FA: 20 nM probe, 50 mM K-glutamate, 20 mM HEPES-KOH pH 7.5, 10 mM MgCl2, 5% glycerol, 1 mM TCEP, 0.1 mg/mL BSA; incubated on ice, read at ambient temperature …
T2 sequence 1: T1 sequence 1
T2 sequence 2: T1 sequence 2 with R263A, K268A, K308A

[3] = biological target: T3, topo VI KGRR-AAA K186A;R188A;R189A (Methanosarcina mazei) (UniProt Q8PUB7+Q8PUB8); test: competition (fluorescence anisotropy); settings: vs FAM 70 bp; FA: 20 nM probe, 50 mM K-glutamate, 20 mM HEPES-KOH pH 7.5, 10 mM MgCl2, 5% glycerol, 1 mM TCEP, 0.1 mg/mL BSA; incubated on ice, read at ambient temperature …
T3 sequence 1: T1 sequence 1
T3 sequence 2: T1 sequence 2 with K186A, R188A, R189A

[4] = biological target: T4, topo VI KGRR-EEE K186E;R188E;R189E (Methanosarcina mazei) (UniProt Q8PUB7+Q8PUB8); test: competition (fluorescence anisotropy); settings: vs FAM 70 bp; FA: 20 nM probe, 50 mM K-glutamate, 20 mM HEPES-KOH pH 7.5, 10 mM MgCl2, 5% glycerol, 1 mM TCEP, 0.1 mg/mL BSA; incubated on ice, read at ambient temperature …
T4 sequence 1: T1 sequence 1
T4 sequence 2: T1 sequence 2 with K186E, R188E, R189E

[5] = biological target: T5, topo VI H2TH-EEE R263E;K268E;K308E (Methanosarcina mazei) (UniProt Q8PUB7+Q8PUB8); test: competition (fluorescence anisotropy); settings: vs FAM 70 bp; FA: 20 nM probe, 50 mM K-glutamate, 20 mM HEPES-KOH pH 7.5, 10 mM MgCl2, 5% glycerol, 1 mM TCEP, 0.1 mg/mL BSA; incubated on ice, read at ambient temperature …
T5 sequence 1: T1 sequence 1
T5 sequence 2: T1 sequence 2 with R263E, K268E, K308E

[6] = biological target: T1, topo VI holoenzyme WT (Methanosarcina mazei); test: competition (fluorescence anisotropy); settings: vs FAM 70 bp; FA: 20 nM probe, 50 mM K-glutamate, 20 mM HEPES-KOH pH 7.5, 10 mM MgCl2, 5% glycerol, 1 mM TCEP, 0.1 mg/mL BSA; incubated on ice, read at ambient temperature …
[7] = biological target: the molecule itself; test: FRET or BRET; bulk FRET between Alexa555 and Alexa647 on Cys155 of the two Top6B in the holoenzyme; 200 nM topo VI with 100 uM bp sheared salmon-sperm (short linear) DNA, before and over time after 1 mM AMPPNP; 50 mM potassium glutamate, 20 mM HEPES-KOH pH 7.5, 10 mM MgCl2
[8] = biological target: the molecule itself; test: FRET or BRET; bulk FRET between Alexa555 and Alexa647 on Cys155 of the two Top6B in the holoenzyme; 200 nM topo VI with 100 uM bp supercoiled plasmid DNA, before and over time after 1 mM AMPPNP; 50 mM potassium glutamate, 20 mM HEPES-KOH pH 7.5, 10 mM MgCl2

## 80 bp duplex
[1]
  binding signal (fold Kd of 60 bp duplex): 2

## pSG483 negatively supercoiled plasmid
[2]
  Ki: 1.3 nM
[3]
  Ki: 7.2 nM
[4]
  Ki: 14.7 nM
[5]
  Ki: 10 nM
[6]
  Ki: 0.6 nM

B1: M. mazei Top6B cyslite-155C, Alexa555/Alexa647-labeled, in the topo VI holoenzyme (enzyme, Methanosarcina mazei)
chain: T1 sequence 2 with T155C, C267S, C278A, C316A, C550A
modifications: Alexa Fluor 555 C2 maleimide or Alexa Fluor 647 C2 maleimide on Cys155
notes: Top6B of Methanosarcina mazei topo VI, 'cys-lite' with Thr155 changed to cysteine; Stood in the assay as part of the A2B2 holoenzyme with Top6A; population is a mix of donor-acceptor (50%), acceptor-acceptor (25%) and donor-donor (25%) labeled enzymes; also called topo VI^cyslite-155C; TopoVI^cyslite-155C; not shown: His6, N-terminal, cleaved
[7]
  binding result: binds

B2: M. mazei Top6B KGRR^AAA cyslite-155C, Alexa555/Alexa647-labeled, in the topo VI holoenzyme (enzyme, Methanosarcina mazei)
chain: T1 sequence 2 with T155C, K186A, R188A, R189A, C267S, C278A, C316A, C550A
modifications: Alexa Fluor 555 C2 maleimide or Alexa Fluor 647 C2 maleimide on Cys155
notes: Top6B of Methanosarcina mazei topo VI, cyslite-155C with the KGRR^AAA mutations; Stood in the assay as part of the A2B2 holoenzyme with Top6A; also called Top6AB-KGRR^AAA cyslite-155C; KGRR^AAA FRET assay construct; not shown: His6, N-terminal, cleaved
[8]
  binding result: binds

B3: M. mazei Top6B H2TH^AAA cyslite-155C, Alexa555/Alexa647-labeled, in the topo VI holoenzyme (enzyme, Methanosarcina mazei)
chain: T1 sequence 2 with T155C, R263A, C267S, K268A, C278A, K308A, C316A, C550A
modifications: Alexa Fluor 555 C2 maleimide or Alexa Fluor 647 C2 maleimide on Cys155
notes: Top6B of Methanosarcina mazei topo VI, cyslite-155C with the H2TH^AAA mutations; Stood in the assay as part of the A2B2 holoenzyme with Top6A; also called Top6AB-H2TH^AAA cyslite-155C; not shown: His6, N-terminal, cleaved
[8]
  binding result: binds

Source: paper PMC5922973, “Topoisomerase VI senses and exploits both DNA crossings and bends to facilitate strand passage” (eLife, 2018)
